{
  "source": "patent US20040266694A1",
  "about": "(published 2004)",
  "binders": {"B1": {"name": "phage clone V40 (control peptide insert encoded by ONV40, SEQ ID NO: 11) (other, bacteriophage M13)", "chain": "FVGGWLVPEDERLYPEAETVESCLAKPHTENSFTNVWKDDKTLDRYANYEGCLWNATGVVVCTGDETQCYGTWVPIGLAIPENEGGGSEGGGSEGGGSEGGGTKPPEYGDTPIPGYTYINPLDGTYPPGTEQNPANPNPSLEESQPLNTFMFQNNRFRNRQGALTVYTGTVTQGTDPVKTYYQYTPVSSKAMYDAYWNGKFRDCAFHSGFNEDPFVCEYQGQSSDLPQPPVNAGGGSGGGSGGGSEGGGSEGGGSEGGGSEGGGSGGGSGSGDFDYEKMANANKGAMTENADENALQSDAKGKLDSVATDYGAAIDGFIGDVSGLANGNGATGDFAGSNSQMAQVGDGDNSPLMNNFRQYLPSLPQSVECRPFVFSAGKPYEFSIDCDKINLFRGVFAFLLYVATFMYVFSTFANILRNKES", "notes": "Clone label V40 tied to oligonucleotide ONV40 by its name only"}, "B2": {"name": "phage clone V5.10 (control peptide insert encoded by ONV5.10, SEQ ID NO: 10) (other, bacteriophage M13)", "chain": "PEPEVRLSPPGHIQSLAETVESCLAKPHTENSFTNVWKDDKTLDRYANYEGCLWNATGVVVCTGDETQCYGTWVPIGLAIPENEGGGSEGGGSEGGGSEGGGTKPPEYGDTPIPGYTYINPLDGTYPPGTEQNPANPNPSLEESQPLNTFMFQNNRFRNRQGALTVYTGTVTQGTDPVKTYYQYTPVSSKAMYDAYWNGKFRDCAFHSGFNEDPFVCEYQGQSSDLPQPPVNAGGGSGGGSGGGSEGGGSEGGGSEGGGSEGGGSGGGSGSGDFDYEKMANANKGAMTENADENALQSDAKGKLDSVATDYGAAIDGFIGDVSGLANGNGATGDFAGSNSQMAQVGDGDNSPLMNNFRQYLPSLPQSVECRPFVFSAGKPYEFSIDCDKINLFRGVFAFLLYVATFMYVFSTFANILRNKES", "notes": "Clone label V5.10 tied to oligonucleotide ONV5.10 by its name only"}, "B3": {"name": "Conjugate NO.: 1, peroxidase-peptide conjugate (other, horseradish)", "chain": "QLTPTFYDNSCPNVSNIVRDTIVNELRSDPRIAASILRLHFHDCFVNGCDASILLDNTTSFRTEKDAFGNANSARGFPVIDRMKAAVESACPRTVSCADLLTIAAQQSVTLAGGPSWRVPLGRRDSLQAFLDLANANLPAPFFTLPQLKDSFRNVGLNRSSDLVALSGGHTFGKNQCRFIMDRLYNFSNTGLPDPTLNTTYLQTLRGLCPLNGNLSALVDFDLRTPTIFDNKYYVNLEEQKGLIQSDQELFSSPNATDTIPLVRSFANSTQTFFNAFVEAMDRMGNITPLTGTQGQIRLNCRVVNSNS", "peptide": "CNGYEIEWYSWVTHGMY", "modifications": "C-terminal amide (NH2); Cys 1 disulfide-linked through SPDP to peroxidase; activated with SPDP (N-succinimidyl-3-(2-pyridylthio)propionate), disulfide-linked to the peptide", "notes": "also called Conjugate ID NO:1; Conjuguate ID NO 1"}, "B4": {"name": "human recombinant VEGF (R&D Systems) (ligand, UniProt P15692-4 27-191, looked up)", "chain": "APMAEGGGQNHHEVVKFMDVYQRSYCHPIETLVDIFQEYPDEIEYIFKPSCVPLMRCGGCCNDEGLECVPTEESNITMQIMRIKPHQGQHIGEMSFLQHNKCECRPKKDRARQENPCGPCSERRKHLFVQDPQTCKCSCKNTDSRCKARQLELNERTCRCDKPRR", "notes": "also called vascular endothelial factor"}},
  "key": {"[1]": {"molecular_target": "T1, Recombinant human Flt-1/Fc chimera (R&D Systems) (human, UniProt P17948-2 27-687, limits assumed)", "T1 sequence (P17948 other isoform, or with tags, fused parts or gaps mutant limits assumed)": "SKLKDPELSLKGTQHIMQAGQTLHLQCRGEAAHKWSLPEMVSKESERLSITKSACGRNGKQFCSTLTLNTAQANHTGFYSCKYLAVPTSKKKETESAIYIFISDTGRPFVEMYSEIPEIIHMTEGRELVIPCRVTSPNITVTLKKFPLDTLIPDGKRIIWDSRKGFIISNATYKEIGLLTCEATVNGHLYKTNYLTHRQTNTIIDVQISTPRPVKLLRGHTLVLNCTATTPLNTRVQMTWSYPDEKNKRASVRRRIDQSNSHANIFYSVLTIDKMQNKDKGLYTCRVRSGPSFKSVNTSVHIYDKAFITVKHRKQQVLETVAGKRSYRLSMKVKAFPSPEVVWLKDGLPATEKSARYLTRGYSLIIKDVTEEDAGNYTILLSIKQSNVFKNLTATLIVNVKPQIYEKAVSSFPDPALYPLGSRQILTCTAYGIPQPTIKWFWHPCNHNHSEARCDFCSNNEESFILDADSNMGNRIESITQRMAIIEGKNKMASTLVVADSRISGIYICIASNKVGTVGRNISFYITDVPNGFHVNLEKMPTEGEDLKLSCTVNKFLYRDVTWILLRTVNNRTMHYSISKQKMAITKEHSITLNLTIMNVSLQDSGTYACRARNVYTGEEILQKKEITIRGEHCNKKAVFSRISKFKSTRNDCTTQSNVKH", "test": "phage ELISA on Flt-1/Fc captured by anti-Fc, anti-M13-HRP"}, "[2]": {"molecular_target": "T1, Recombinant human Flt-1/Fc chimera (R&D …)", "test": "receptor binding assay on immobilized Flt-1/Fc; reference: the peptide"}, "[3]": {"molecular_target": "T1, Recombinant human Flt-1/Fc chimera (R&D …)", "test": "receptor binding assay on immobilized Flt-1/Fc, bound peroxidase activity"}, "[4]": {"molecular_target": "T1, Recombinant human Flt-1/Fc chimera (R&D …)", "test": "competitive receptor binding assay on immobilized Flt-1/Fc; VEGF against 30 µM fluorescein labeled peptide (SEQ ID NO: 3)", "procedure": "The cocktails were allowed to equilibrate for 4 hours at room temperature. After incubation, micrititer plates were washed with buffer B for 10 times. […] The results are represented as average of triplicate measurement ±SD."}},
  "data": [
    {"binder": "B1", "values": [
      {"measurement": "ABSORBANCE, A 405", "setting": "[1]", "value": 0.025, "unit": "A405"}
    ]},
    {"binder": "B2", "values": [
      {"measurement": "ABSORBANCE, A 405", "setting": "[1]", "value": 0.039, "unit": "A405"}
    ]},
    {"binder": "B3", "values": [
      {"measurement": "fold of half-maximum binding concentration against the peptide", "setting": "[2]", "value": 50, "unit": "fold"},
      {"measurement": "EC50", "setting": "[3]", "value": 100, "unit": "nM"}
    ]},
    {"binder": "B4", "values": [
      {"measurement": "IC50", "setting": "[4]", "value": 5, "unit": "nM"}
    ]}
  ]
}
